Measured values published in the DeepSol protein solubility set.

Experiment: soluble on expression in E. coli; label from the status in PepcDB or PDB records
For “MLPNNQWQIPINNGLTHQENMAAHAAVMKLRVHDLQSIISQLSLRKPRPQKSEHQKVVVESLRDPHHARQIYQMVISLIFSSLQASNFPNGNYEMQKRPATTSQVRSHPYVLPSRSGASNHLVNHHYQQQQQQQPQPHNLLHQQMMASHHSHLQQQHHPSTVRWLTPELLEEQLRGSMRYGAPAAAAATNAPLHSSFPNHGRSSQQSLQKSEKSNRPKKMYADNFEPLPLPFYDVISVLLKPVELHSSDSPTLKQTKQLQFPFLLTAEHISKISYRADVTPLPRYELQLRFFNLTEPVQGPQKDDFPLNCYARVDDSVVQLPNVIPTNKTNAEPKRPSRPVNITSNMNRYKKEHTVAVEWLADKRVWAAGVYFVHRVNSDILFKRLNQNVSRHRSLEVTKQEVIKKLSGGEDDIAMDRLNISLLDPLCKTRMTTPSRCQDCTHLQCFDLLSYLMMNEKKPTWQCPVCSSNCPYDRLIVDDYFLDMLAKVDKNTTEVELKEDGSYDVIKEEAFCISDDDDDDVVPATVNGTASCSSTNGNGLANEAAKKKPADDDIITLSDDDDEELNRGIMNSLNDSFSPGRHTASAELAAQKTPPQQKKKTKDDDIEIITLDDTPPRPVAASANLPMRQMSQQNQMPVGSSPSGMASTQMGMNEGASKTIRDALNKIGEQSANSSTQSSPLVQLHHTTHPLNFAQSSYMNPSSGSQTPTSQYGYSPMINQAPHFQMQNGLIGRNNQMVHMQQHHLQQQQQQQQSPQIMSPSFYAQQQMSNGGAFAYYPPQYPQQQYRQN”, the “soluble on expression in E. coli” value was “not soluble”. In the case of “MLRFTNCSCKTFVKSSYKLNIRRMNSSFRTETDAFGEIHVPADKYWGAQTQRSFQNFKIGGARERMPLPLVHAFGVLKKSAAIVNESLGGLDPKISKAIQQAADEVASGKLDDHFPLVVFQTGSGTQSNMNANEVISNRAIEILGGKIGSKQVHPNNHCNQSQSSNDTFPTVMHIAASLQIQNELIPELTNLKNALEAKSKEFDHIVKIGRTHLQDATPLTLGQEFSGYVQQVENGIQRVAHSLKTLSFLAQGGTAVGTGLNTKPGFDVKIAEQISKETGLKFQTAPNRFEALAAHDAIVECSGALNTLACSLFKIAQDIRYLGSGPRCGYHELMLPENEPGSSIMPGKVNPTQNEALTQVCVQVMGNNAAITFAGSQGQFELNVFKPVMIANLLNSIRLITDAAYSFRVHCVEGIKANEPRIHELLTKSLMLVTALNPKIGYDAASKVAKNAHKKGITLKESALELGVLTEKEFDEWVVPEHMLGPK”, the “soluble on expression in E. coli” value is reported as “soluble”. In the case of “MLRKLSKFSNKGEVFMGLLEGKRALITGVANERSIAYGIAKSFHREGAQLAFTYATPKLEKRVREIAKGFGSDLVVKCDVSLDEDIKNLKKFLEENWGSLDIIVHSIAYAPKEEFKGGVIDTSREGFKIAMDISVYSLIALTRELLPLMEGRNGAIVTLSYYGAEKVVPHYNVMGIAKAALESTVRYLAYDIAKHGHRINAISAGPVKTLAAYSITGFHLLMEHTTKVNPFGKPITIEDVGDTAVFLCSDWARAITGEVVHVDNGYHIMGVFGREEEIKKEVYGD”, the “soluble on expression in E. coli” value is reported as “soluble”. For “MLRLDTRFLPGFPEALSRHGPLLEEARRRLLAKRGEPGSMLGWMDLPEDTETLREVRRYREANPWVEDFVLIGIGGSALGPKALEAAFNESGVRFHYLDHVEPEPILRLLRTLDPRKTLVNAVSKSGSTAETLAGLAVFLKWLKAHLGEDWRRHLVVTTDPKEGPLRAFAEREGLKAFAIPKEVGGRFSALSPVGLLPLAFAGADLDALLMGARKANETALAPLEESLPLKTALLLHLHRHLPVHVFMVYSERLSHLPSWFVQLHDESLGKVDRQGQRVGTTAVPALGPKDQHAQVQLFREGPLDKLLALVIPEAPLEDVEIPEVEGLEAASYLFGKTLFQLLKAEAEATYEALAEAGQRVYALFLPEVSPYAVGWLMQHLMWQTAFLGELWEVNAFDQPGVELGKVLTRKRLAG”, the “soluble on expression in E. coli” value was “soluble”. In the case of “MLRLLLRHHFHCLLLCAVWATPCLASPWSTLTANQNPSPPWSKLTYSKPHDAATFYCPFLYPSPPRSPLQFSGFQQVSTGPECRNETLYLLYNREGQTLVERSSTWVKKVIWYLSGRNQTILQRMPQTASKPSDGNVQISVEDAKIFGAHMVPKQTKLLRFVVNDGTRYQMCVMKLESWAHVFRDYSVSFQVRLTFTEANNQTYTFCTHPNLIVLEHHHHHH”, the “soluble on expression in E. coli” value is reported as “not soluble”. With “MLRLSAPGQLDDDLCLLGDVQVPVFLLRLGEASWALVEGGISRDAELVWADLCRWVADPSQVHYWLITHKHYDHCGLLPYLCPRLPNVQVLASERTCQAWKSESAVRVVERLNRQLLRAEQRLPEACAWDALPVRAVADGEWLELGPRHRLQVIEAHGHSDDHVVFYDVRRRRLFCGDALGEFDEAEGVWRPLVFDDMEAYLESLERLQRLPTLLQLIPGHGGLLRGRLAADGAESAYTECLRLCRRLLWRQSMGESLDELSEELHRAWGGQSVDFLPGELHLGSMRRMLEILSRQALPLD” the “soluble on expression in E. coli” value was “not soluble”. In the case of “MLRREFGPKYTAKINEAEENWQARAEAIKKGKKQNTWDLFEERGYVKDTAGTKEHIAELMRTRRIGAYVGIDPTAPSLHVGHLLPLMPLFWMYLEGYKAFTLIGGSTAKIGDPTGRLKSRDHLSSSDATMNMTKIHYQLKKLWENVDTQMRARGYEADWARKRGIVNNNHWWNKQPMLEVLRRVGHALRIGPMLSRDTVKNKMTQGDGVSFAEFTYPIMQGWDWFELFYQQGVQMQIGGSDQYGNIISGLEVVKAARESEPDPQERKYVTPKTALDECVGFTVPLLTDSSGAKFGKSAGNAIWLDPYQTSVFDFYGYFVRRSDQEVENLLKLFTFMPISEITKTMEEHIKDPSKRVAQHTLAREVVTLVHGKQEASAAEDQHRMMYTGQMTI”, the “soluble on expression in E. coli” value is reported as “soluble”. With “MLRSLLKSRQVICGLRELRALSTSQGNESIIDFVDTVTETSEAQNQSFASLLRNSKFMQLGDFNGRLVVGKIAQRVQEDVYIDFGLKFNAVCKVPALNSEAYRSGARVLIRLIDPELSERFLGSKHDLTLLEADAVLVRLLSNVPRQQQQRQKPRGATEEEAPAAPETPAAH” the “soluble on expression in E. coli” value was “not soluble”. With “MLRSLSTISKSTVRCMSLTSKMAAEQPSKQEVDDLFAEKPQHHNPEQRRHAYSVNKVELVGGVALDPLYKTGRNGKPYLIFNIITNSYFKQQDGTTLDQTERHAVSVFGKQAEILSKTIKKGSRLMVQGRLHYSGGQKDEQGNRTQRNTYIIAQTVQPLARAARENPDQH” the “soluble on expression in E. coli” value was “not soluble”. For “MLSEEDVHTNSYAGRTVAVMEQPDLFSDDCDEINLGNEDTPPSKLRLHTTEEPKESSSPAVINSIEDHDQYVGNDNHYAQISPEPALSNFKVTMREFEKRGDGMNAYIVYKLETEVSGVVGYTKQHYETWRRFSDFLGLHGKIVEKYLAKGIVIPQPPEKSISALTKTKTNSDPAMSREVGIQRARQLERYICRLIQHPRMRNDCDVRDFLTIESDLPKAVQTAALSSFGVKKIFKNFQVVFSKMAFHMEEGDRWFEQVQSQVDELDEALRKLYTVTETLVASRRDMATSGEQLGKALSMLAACEESTSLSRALSSLTDVTENVSAVYGKQAEVDNSKFSESIYEYIMLISALKDVFGERVRAWQQWQDAQQTLARKRDQKTKIDLSAGGRNERSDQLKGEIEDTVQKMDQLEQHFIELSKAIREEVARFDADRKQDMKKMLVEYMESMIHTHTELLHLWEKFEPEANNIRV”, the “soluble on expression in E. coli” value was “not soluble”. With “MLSEQKEIAMQVSGMTCAACAARIEKGLKRMPGVTDANVNLATETVNVIYDPAETGTAAIQEKIEKLGYHVVTEKAEFDIEGMTCAACANRIEKRLNKIEGVANAPVNFALETVTVEYNPKEASVSDLKEAVDKLGYKLKLKGEQDSIEGR” the “soluble on expression in E. coli” value was “soluble”. With “MLSIREYLEAGETTISNLLFDHYQKIGLKDDEFLFLLQLFRSQNAGDLFPDLMAIAETMGKTPDTIYKLLNQLVSRGFIRIETQQNQKGQMMDTYDLLPVFQKIQLFLQTSKEKQVVANHEDEIKQLYQGFEKEFGRPLSPIELEMIGQWLNTDHYSPELIRLALREAVLNQAYSLKYIDRILLAWERKNITTKEQVAADQKKRKDSMIQNEIEQQGQTQESLPKVTLHNWLNPEDSE” the “soluble on expression in E. coli” value was “soluble”. With “MLSRKKTKNEVSKPAEVQGKYVKKETSPLLRNLMPSFIRHGPTIPRRTDLCLPDSSATAFSASGDGIVSRNQSFLRTAIQRTPHEVMRRESHRLSAPSYLVRSLADVPRECGSSQSFLTEVNFAVENGDSGSRYFFSDNFFDGQRRRPLGDRAQEDYRYYEYNHDLFQRMPQSQGRHTSGIGRVTATSLGNLTNHGSEDLPLPPGWSVDWTMRGRKYYIDHNTNTTHWSHPLEREGLPPGWERVESSEFGTYYVDHTNKRAQYRHPCAPSVPRYDQPPPITYQPQQTERNQSLLVPANPYHTAEIPDWLQVYARAPVKYDHILKWELFQLADLDTYQGMLKLLFMKELEQIVKLYEAYRQALLTELENRKQRQQWYAQQHGKTFLS” the “soluble on expression in E. coli” value was “soluble”. For “MLSVEKFRVGERVVWIGVIFSGRVQGIAFAFDRGTLMKRIHDLAEHLGKRGVSISLDVQPSDYPEKVFKVLIGELDNASFLRELSFEGVTPFEKKVYEWLTKNVKRGSVITYGDLAKALNTSPRAVGGAMKRNPYPIVVPCHRVVAHDGIGYYSSGIEEKKFLLEIEGVKEWTS”, the “soluble on expression in E. coli” value was “soluble”. With “MLTEEKVLAALNRVKDRDLNKSIVETGGIRELKISGANVSVKVALAQTGTREQMEIQQEIVNVLKGEGAESVGLRFDQLDETEIEKLGGLPKQEFHGPPLLHPNTSTTFIAVTSGKGGVGKSTVSVNLATTLARLGKKVGIIDADIYGFSVPDMMGIEERPKVVGEQIFPVERFGVKVISMGFFVEDNAPVIWRGPMLGKMLNNFFAEVEWGDLDYLILDLPPGTGDVALDIHTMLPHSKEILVTTPHATAAFVAARAGAMALKTHHEIIGVVENMAYFESKITGEKEYVFGQGGGERLAEELKTEVLGRIPLGQPEIDEDDFAPSVYGATHPIGEIYTAIAKRVIDKTTLEHHHHHH” the “soluble on expression in E. coli” value was “soluble”. For “MLTERQLLIFRAIIDHFTWTIQPVGSKNLLKEKSLPYSSATIRNEMGVLEEYGFIEKTHSSSGRVPSEKGYRFYVDYLLQPKKLDKSDRQMIRSFFSENYYEMEGLIQNSALMLSDLTNYTSILLGPEATKNHLSGFRFVPINNFQAMLILITDQGHVDNHLVTIPEGTTLSDIERMVNILNERLVGLSLDDLKVQIPMEVKELLGKHVRNYESFMHVFSDSFAQASQQKVYFGGKTNILNQPEFHDINKVREMLHLMEEEQDVYELFRDIPDGLQVKIGRENNNSLMEDCSIITATYNIAGERVGGIVLLGPTRMEYSRMMGLVDVMSRDLTDVLTKLYRDNQN”, the “soluble on expression in E. coli” value was “not soluble”. For “MLTFALTIVRAGETQYNRDKLLQGQGIDTPLSDTGHQQAAAAGRYLKDLHFTNVFVSNLQRAIQTAEIILGNNLHSSATEMILDPLLRERGFGVAEGRPKEHLKNMANAAGQSCRDYTPPGGETLEQVKTRFKMFLKSLFQRMFEEHGSALSSVPSEADQPVIAGLADDGAQNVPVHALMVSHGAFIRISVRHLVEDLQCCLPAGLKMNQVFSPCPNTGISRFIFTIHREESVLRATRIQGVFINRKDHLEEVKNSDLEHHHHHH”, the “soluble on expression in E. coli” value was “soluble”. For “MLTGLKIAVIGGDARQLEIIRKLTEQQADIYLVGFDQLDHGFTGAVKCNIDEIPFQQIDSIILPVSATTGEGVVSTVFSNEEVVLKQDHLDRTPAHCVIFSGISNAYLENIAAQAKRKLVKLFERDDIAIYNSIPTVEGTIMLAIQHTDYTIHGSQVAVLGLGRTGMTIARTFAALGANVKVGARSSAHLARITEMGLVPFHTDELKEHVKDIDICINTIPSMILNQTVLSSMTPKTLILDLASRPGGTDFKYAEKQGIKALLAPGLPGIVAPKTAGQILANVLSKLLAEIQAEEGK”, the “soluble on expression in E. coli” value was “soluble”. In the case of “MLTIHTKLISAMITQSLKDHPIETCGIIAGLAGSNLPLRLIPMRNVAQSENFFMFDPQQQLQVWKEMSARHEEPVVIYHSHTGSEAYPSRSDVELAAEPQAHYVIIPTCSPHKEEIRSFRIVDQMVIEERVQIVRQYQPELEFQMMVALEHHHHHH”, the “soluble on expression in E. coli” value is reported as “not soluble”.
